# Article PMC3674922, “Single-molecule photobleaching reveals increased MET receptor dimerization upon ligand binding in intact cells” (BMC Biophysics, 2013)
# B1: InlB-ATTO647N (InlB321 with C242A and K280C, labelled with ATTO647N at C280) (domain or fragment)
# chain: ETITVPTPIKQIFSDDAFAETIKDNLKKKSVTDAVTQNELNSIDQIIANNSDIKSVQGIQYLPNVTKLFLNGNKLTDIKPLANLKNLGWLFLDENKVKDLSSLKDLKKLKSLSLEHNGISDINGLVHLPQLESLYLGNNKITDITVLSRLTKLDTLSLEDNQISDIVPLAGLTKLQNLYLSKNHISDLRALAGLKNLDVLELFSQEALNKPINHQSNLVVPNTVKNTDGSLVTPEIISDDGDYECPNVKWHLPEFTNEVSFIFYQPVTIGKAKARFHGRVTQPLKE
# modifications: ATTO647N attached to C280 by maleimide coupling (degree of labeling 0.5)
# notes: internalin B (InlB) of Listeria monocytogenes, N-terminal internalin domain, amino acids 36-321 (InlB321); either way residue 280 is cysteine; also called dye-labeled InlB321; internalin domain of InlB
# Biological target: T1, soluble MET ectodomain (MET928) (human, UniProt P08581 25-932)
# T1 construct: MET receptor tyrosine kinase, human, soluble complete ectodomain (MET928)
# Assay: fluorescence correlation spectroscopy (FCS); in solution; 1 nM InlB-ATTO647N, MET928 titrated from 0.01 nM to 1-2 uM; PBS with 0.05% Tween-20; at least 3 h at room temperature; objective at 20°C; diffusion time fitted to a 1:1 binding model
# Details: both partners purified
# T1 sequence (P08581 25-932): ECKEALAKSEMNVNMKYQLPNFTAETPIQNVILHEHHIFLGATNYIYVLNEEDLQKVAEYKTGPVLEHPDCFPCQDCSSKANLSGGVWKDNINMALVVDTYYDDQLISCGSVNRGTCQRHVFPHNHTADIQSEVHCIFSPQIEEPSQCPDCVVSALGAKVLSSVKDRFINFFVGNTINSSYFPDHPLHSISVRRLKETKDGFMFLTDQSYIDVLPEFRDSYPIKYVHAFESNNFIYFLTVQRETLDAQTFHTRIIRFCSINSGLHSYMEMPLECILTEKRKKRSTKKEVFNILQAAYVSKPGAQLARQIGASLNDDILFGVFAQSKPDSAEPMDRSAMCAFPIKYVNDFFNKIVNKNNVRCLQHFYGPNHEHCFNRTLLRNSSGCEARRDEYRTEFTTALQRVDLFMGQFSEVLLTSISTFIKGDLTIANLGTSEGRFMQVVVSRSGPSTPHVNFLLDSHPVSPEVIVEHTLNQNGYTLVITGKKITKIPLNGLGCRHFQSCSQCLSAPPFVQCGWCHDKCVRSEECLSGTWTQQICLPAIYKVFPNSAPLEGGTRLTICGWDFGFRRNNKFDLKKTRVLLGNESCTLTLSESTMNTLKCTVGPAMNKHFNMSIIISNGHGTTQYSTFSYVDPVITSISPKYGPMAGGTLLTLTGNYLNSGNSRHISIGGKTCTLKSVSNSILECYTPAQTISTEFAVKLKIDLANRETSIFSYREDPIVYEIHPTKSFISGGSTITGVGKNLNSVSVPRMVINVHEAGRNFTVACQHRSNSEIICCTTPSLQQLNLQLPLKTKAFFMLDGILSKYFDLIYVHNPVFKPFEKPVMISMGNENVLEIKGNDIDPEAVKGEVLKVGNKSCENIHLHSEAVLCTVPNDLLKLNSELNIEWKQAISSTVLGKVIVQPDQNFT
binder,measurement,value
B1,Kd,5 ± 0.8 nM
